Measurements published in patent JP2001333780A (dated 2001).

Target: T1, 上皮細胞増殖因子レセプター(EGFR) (UniProt P00533 25-1210, limits assumed)
T1 construct: whole, on cells; The antigen is formalin-fixed A431 cells; also called EGF レセプター; EGFレセプター
Test: competition ELISA with HRP-labelled B4G7 on formalin-fixed A431 cells

抗体一価あたりの結合力 (relative to B4G7抗体)	binding result	Binder
~0.33 fold of B4G7 antibody, per antibody valence	–	一本鎖scBH抗体 (scFv) QVQLQQSGAELVRPGASVKLSCTASGFNIKDTLMHWVKQRPEQGLEWIGWIDPEDGNTKYVRKFQGKATITADTSSNTAYLQVSSLTSEDTAIYYCVRGGSYGNWAYWGQGTTVTVSSDIELTQSPASLSASVGETVTITCRTSENIYSYFAWYQQKQGKSPHLLVYNAKTLAEGVPSRFSGSGSGTQFSLKINSLQPEDFGIYFCQHHYGSLHTFGGGTKLEIK
–	binds	CaC 型 ヒト型一本鎖抗体 (scFv, Humanised scFv with VH of Ca type and VL of C type) scFv: MGHHHHHHQVQLVQSGAEVKKPGASVKVSCKASGFNIKDTLMHWVRQAPGQGLEWMGWIDPEDGNTKYVRKFQGRVTMTRDTSTSTVYMELSSLRSEDTAVYYCARGGSYGNWAYWGQGTTVTVSSGGGGSGGGGSGGGGSDIQMTQSPSSLSASVGDRVTITCRTSENIYSYFAWYQQKSGKAPKLLIYNAKTLAEGVPSRFSGSGSGTEFTLTISSLQPEDFATYFCQHHYGSLHTFGGGTTVDIKHHHHHHGGGS
